Reference: patent US10745461B2, “Pulsed introduction of low-dose RANKL as a therapy for diet-induced atherosclerosis” (Saint Louis University, priority 2015, dated 2020)
Entries after “also recorded” stand apart in the source; their conditions may differ.

Tested on: ovariectomized mice
Assay: Low dose RANKL in ovariectomized mice (TcREG, serum CTX, μCT, bone formation)
Format: in vivo
Experimental: Representative FACS contour plots are shown on the first and second panel and the distribution (N=8 mice per group) is shown in the third panel. […] In these experiments (panels C-F), we used ex vivo generated TcREG as a positive control/comparator. […] Arrows are shown to emphasize the distance between dyes.
it was then determined that RANKL induces functional TcREG in ovariectomized mice. Having shown that RANKL could restore the ability of osteoclasts to induce FoxP3 expression in the presence of TNFα in vitro, we tested the ability of RANKL to induce TcREG in ovariectomized mice, as proof of principle for de-repression by increased levels of RANKL in pro-inflammatory environment. Again, a dose of RANKL that induced the highest levels of TcREG in vivo (FIG. 1A) was used. Administration of love dose RANKL to ovariectomized mice increased TcREG numbers by an average of 1.8-fold (FIG. 6A). To determine whether this increase in TcREG numbers affected bone resorption in ovariectomized mice, levels of bone resorption and bone formation rates in these (low-dose) RANKL-treated mice were measured. As it has been previously established that ex vivo generated OC-iTcREG limit bone resorption, increased bone mass, decreased activated effector T-cells, and increases bone formation and mineral apposition rates, this treatment was used as a benchmark in these experiments.
Bilateral ovariectomy was performed on 12-14 week old mice. Mice were anesthetized using 2.5% isoflurane to initiate anesthesia, and 1% for maintenance. The ovaries were accessed through a single incision in the skin, and exteriorized through muscle wall on each side. Each ovary was clamped using hemostat and removed by a single cut. Skin staples (3M) were used to close the skin incision. To minimize discomfort post-surgery, 0.025 mg/kg Buprenorphine was administered subcutaneously. Zoledronate (Selleck Chemicals) was administered at 30 μg/kg via tail vein.
Food was withdrawn 6 to 10 hours prior to bleeding. Peripheral blood (100 to 200 μL) obtained via sub-mandibular vein, was allowed to clot for 2 hours at room temperature and serum collected by spinning down the cell pellet. Serum C-terminal telopeptide of type 1 collagen (serum CTX) was measured using ELISA according to the manufacturer's instructions (Immunodiagnostic Systems, Plc)
The bones were scanned in μCT40 (Scanco Medical) at 55 kVp, 145 μA, and resolution of 16 μm. Gauss sigma of 1.2, Gauss support of 2, lower threshold of 237, and upper threshold of 1000 were used for all the analysis. Regions of interest were selected 50 slices below the growth plate of the proximal tibia to evaluate the trabecular compartment. Bone mineral density was obtained by quantitative μCT using Scanco Phantoms for calibration^49. All μCT data and bone histomorphometry data was collected and analyzed by C.Y, who was blinded to the treatment performed on the mouse samples.

B1: receptor activator of NF-κB ligand (protein, UniProt O35235 139-316, looked up)
Tumor necrosis factor ligand …: FSGAPAMMEGSWLDVAQRGKPEAQPFAHLTINAASIPSGSHKVTLSSWYHDRGWAKISNMTLSNGKLRVNQDGFYYLYANICFRHHETSGSVPTDYLQLMVYVVKTSIKIPSSHNLMKGGSTKNWSGNSEFHFYSINVGGFFKLRAGEEISIQVSNPSLLDPDQDATYFGAFKVQDID
modifications: GST tag
- osteoclasts occupying bone: fewer osteoclasts occupying bone
- overall effectiveness of treatment: more effective treatment than OC-iTcREG and the bisphosphonate Zoledronic acid by all measurable criteria
- bone mass and bone mineral density (μCT) (comparator OC-iTcREG): more bone mass and bone mineral density relative to the OC-iTcREG treated mice
- serum CTX (comparator OC-iTcREG, listed as low dose RANKL): lower levels of serum CTX compared to mice treated with OC-iTcREG
- serum CTX (comparator OC-iTcREG, listed as low-dose RANKL): serum CTX levels decreased
- bone formation and mineral apposition rates (comparators OC-iTcREG, Zoledronate, listed as low dose RANKL): to a greater extent than Zoledronate and ex vivo generated TcREG; also recorded: increase bone formation and mineral apposition rates than OC-iTcREG treated mice
- TcREG induction in bone marrow (intraperitoneal 0.125 mg/kg): induced TcREG in the bone marrow of ovariectomized mice
- increase in TcREG numbers (average) (low dose RANKL): 1.8 fold
